Laboratory results taken from paper PMC6003625 (Journal of molecular biology, 2018).

Target: Nup159-Dbp5-Mg2+mantADP complex (S. cerevisiae | , UniProt P20449 1-482; P40477 1-1460)
Experiment: stopped-flow kinetics of mantADP dissociation

Sequence of Nup159-Dbp5-Mg2+mantADP complex (P20449 whole entry, chain 1 of 2): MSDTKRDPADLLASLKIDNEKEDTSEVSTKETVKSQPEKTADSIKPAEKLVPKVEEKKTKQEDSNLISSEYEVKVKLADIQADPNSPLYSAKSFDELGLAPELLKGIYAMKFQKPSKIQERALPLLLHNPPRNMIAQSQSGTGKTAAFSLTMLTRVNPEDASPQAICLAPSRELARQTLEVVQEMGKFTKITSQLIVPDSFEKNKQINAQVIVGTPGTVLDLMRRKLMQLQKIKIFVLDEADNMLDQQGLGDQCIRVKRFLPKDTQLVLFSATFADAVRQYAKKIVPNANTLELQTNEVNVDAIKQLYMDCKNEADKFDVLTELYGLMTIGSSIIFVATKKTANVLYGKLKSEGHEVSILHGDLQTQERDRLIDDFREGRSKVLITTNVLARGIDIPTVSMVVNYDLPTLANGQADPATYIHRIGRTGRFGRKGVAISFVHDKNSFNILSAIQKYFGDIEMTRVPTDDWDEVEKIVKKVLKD
Sequence of Nup159-Dbp5-Mg2+mantADP complex (P40477 whole entry, chain 2 of 2): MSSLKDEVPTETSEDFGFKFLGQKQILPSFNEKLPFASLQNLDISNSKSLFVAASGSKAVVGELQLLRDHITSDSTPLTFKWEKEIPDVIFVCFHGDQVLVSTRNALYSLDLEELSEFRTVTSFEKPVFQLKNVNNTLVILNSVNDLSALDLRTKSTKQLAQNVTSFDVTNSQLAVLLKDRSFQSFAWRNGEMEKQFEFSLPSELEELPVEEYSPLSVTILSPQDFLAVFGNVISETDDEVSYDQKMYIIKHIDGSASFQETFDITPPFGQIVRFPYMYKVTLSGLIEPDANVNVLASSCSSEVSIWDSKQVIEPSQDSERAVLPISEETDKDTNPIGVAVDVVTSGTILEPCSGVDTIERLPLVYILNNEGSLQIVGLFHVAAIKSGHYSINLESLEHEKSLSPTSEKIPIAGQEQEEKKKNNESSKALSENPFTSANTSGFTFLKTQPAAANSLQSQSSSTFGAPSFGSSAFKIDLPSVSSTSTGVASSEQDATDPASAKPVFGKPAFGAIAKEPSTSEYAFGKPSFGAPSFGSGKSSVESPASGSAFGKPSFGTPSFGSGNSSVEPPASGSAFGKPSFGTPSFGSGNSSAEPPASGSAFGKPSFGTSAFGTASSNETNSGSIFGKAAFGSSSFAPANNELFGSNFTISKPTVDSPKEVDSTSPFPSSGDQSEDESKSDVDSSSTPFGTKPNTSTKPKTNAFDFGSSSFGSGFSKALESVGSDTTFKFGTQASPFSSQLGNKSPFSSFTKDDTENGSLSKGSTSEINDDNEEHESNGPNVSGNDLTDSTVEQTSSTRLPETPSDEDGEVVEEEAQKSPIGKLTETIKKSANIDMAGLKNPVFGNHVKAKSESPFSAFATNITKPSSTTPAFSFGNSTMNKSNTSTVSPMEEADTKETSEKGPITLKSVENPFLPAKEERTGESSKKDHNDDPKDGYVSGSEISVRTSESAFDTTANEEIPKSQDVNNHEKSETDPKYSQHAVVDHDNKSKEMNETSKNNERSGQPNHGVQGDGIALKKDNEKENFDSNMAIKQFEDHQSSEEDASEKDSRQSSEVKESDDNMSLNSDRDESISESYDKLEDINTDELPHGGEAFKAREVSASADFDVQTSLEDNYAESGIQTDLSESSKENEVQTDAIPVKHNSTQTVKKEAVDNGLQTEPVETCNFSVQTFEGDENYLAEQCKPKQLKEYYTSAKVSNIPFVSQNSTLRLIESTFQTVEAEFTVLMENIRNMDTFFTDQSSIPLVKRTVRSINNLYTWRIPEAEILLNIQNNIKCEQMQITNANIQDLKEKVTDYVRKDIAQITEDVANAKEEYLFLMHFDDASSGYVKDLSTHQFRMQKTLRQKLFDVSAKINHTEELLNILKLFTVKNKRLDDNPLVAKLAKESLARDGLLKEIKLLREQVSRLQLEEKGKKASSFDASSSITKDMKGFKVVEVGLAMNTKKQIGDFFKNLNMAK

B1: Gle1 (natural protein, UniProt Q12315 1-538, looked up)
chain: MRFVFDEVFNSDTDSPEFEETCSTTSSTSSQCPTPEPSPAIKLPSFTKVGTKKLVNESVVILDPALENALRDLNLQSKLIPINEPIVAASSIIVPHSTNMPLPRASHSSLLDNAKNSNATAPLLEAIEESFQRKMQNLVLANQKEIQSIRENKRRVEEQRKRKEEEERKRKEAEEKAKREQELLRQKKDEEERKRKEAEAKLAQQKQEEERKKIEEQNEKERQLKKEHEAKLLQQKDKLGKAVTNFDKISKMFWHYKDKIAQIKQDIVLPIKKADVNVRNLLSRHKRKINPKFGQLTNSNQQLFKIQNELTQLINDTKGDSLAYHWILNFIAKAVVHQAETEVRVKPESALPLGKLTLYLLVQFPELQELFMARLVKKCPFVIGFTCEIDTEKGRQNMGWKRNNENKWEDNTSYDERMGGILSLFAIITRLQLPQEFITTTSHPFPIALSWHILARICNTPLNLITNTHFVILGSWWDAAAVQFLQAYGNQASKLLILIGEELTSRMAEKKYVGAARLRILLEAWQNNNMESFPEMSP
  Kd: 1800 nM
